Data on one molecule can be found in paper PMC2959088, “Molecular determinants of improved cathepsin B inhibition by new cystatins obtained by DNA shuffling” (BMC Structural Biology, 2010).

This test concerns the target T1, human cathepsin L (human).
T1 construct: cathepsin L, human, bought from Calbiochem; active enzyme used at 0.3 nM; source: bought: Calbiochem
In words: enzyme inhibition assay (residual activity on the fluorogenic substrate Z-Phe-Arg-MCA); cathepsin B or L (0.3 nM) incubated 5 min at 37°C with varied inhibitor in 100 mM sodium acetate pH 5.5, 2.5 mM DTT; substrate 0.01 mM; triplicate; Ki(app) by non linear regression (GraFit), Ki by Morrison's procedure. The following applies: both partners purified.

B1: Oryzacystatin-1 N-terminal deletion (NΔ) (natural protein)
chain: MSSDGGPVGNENDLHLVDLARFAVTEHNKKANSLLEFEKLVSVKQQVVAGTLYYFTIEVKEGDAKKLYEAKVWEKPWMDFKELQEFKPVDASANA
Molecule B1 gave a Ki of 5.66 nM.
